Source: paper PMC3223204, “Implantation Serine Proteinase 1 Exhibits Mixed Substrate Specificity that Silences Signaling via Proteinase-Activated Receptors” (PLoS ONE, 2011)
“Also recorded” adds a separate entry of the source.

Assays:
[1] = biological target: T1, human PAR2 (Homo sapiens, UniProt P55085); assay: Release of N-terminal BAB motif from PAR2 on COS-1 cells; format: cell-based; conditions: 0.1 and 0.5 units per ml, 37°C, 30 minutes
T1 construct: expressed in transfected cells; host or cells: COS-1
T1 sequence (P55085 with tags, fused parts or gaps limits assumed): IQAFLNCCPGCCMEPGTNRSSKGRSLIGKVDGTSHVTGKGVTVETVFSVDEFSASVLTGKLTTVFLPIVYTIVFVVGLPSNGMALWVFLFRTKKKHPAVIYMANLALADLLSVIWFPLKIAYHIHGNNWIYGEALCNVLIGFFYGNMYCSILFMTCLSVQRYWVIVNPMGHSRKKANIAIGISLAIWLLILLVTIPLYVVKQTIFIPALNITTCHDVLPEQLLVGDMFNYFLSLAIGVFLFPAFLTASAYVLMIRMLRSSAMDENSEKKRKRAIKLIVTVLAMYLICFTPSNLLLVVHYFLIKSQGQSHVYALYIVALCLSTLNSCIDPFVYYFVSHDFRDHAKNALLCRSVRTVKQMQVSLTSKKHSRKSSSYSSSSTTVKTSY
Text: (§1) The biarsenical fluorochrome binding domain (BAB), containing a tetra-cysteine motif, […] for PAR1, […] for PAR2 and […] for PAR4 was inserted into the receptor N-terminal domains by introducing corresponding oligonucleotides just downstream of the signal peptide of PARs, after A26 for human PAR1, Q27 for human PAR2 and V25 for human PAR4. The PAR DNA constructs containing the N-terminal BAB domain and a YFP C-terminal fluorochrome tag were cloned in pCDNA3.1+ at the restriction enzyme sites between Eco RI and Xba I. COS-1 cells obtained from ATCC (Manassas, VA USA) were transected with the PAR constructs with the FuGENE6 transfection reagent (Roche Applied Bioscience). The expression level of the expressed receptor was quantified using a fluorescence plate reader, (Victor 4X, Perkin-Elmer), and confocal microscopy was used to monitor the receptor location by visualizing the receptor YFP tag. […] Then, the peptide(s) containing the receptor BAB tetracysteine motif released by proteinases from the receptor N-terminus into the cell culture supernatant was quantified using a Victor X4 fluorescent plate reader with an excitation wavelength of 540 nm and an emission wavelength monitored at 615 nm. […]

[2] = biological target: T2, human PAR4 (Homo sapiens, UniProt Q96RI0, INS25FLNCCPGCCMEP); assay: Release of N-terminal BAB motif from PAR4 on COS-1 cells; format: cell-based; conditions: 0.1 and 0.5 units per ml, 37°C, 30 minutes
T2 construct: expressed in transfected cells; host or cells: COS-1
T2 sequence (Q96RI0 with tags, fused parts or gaps): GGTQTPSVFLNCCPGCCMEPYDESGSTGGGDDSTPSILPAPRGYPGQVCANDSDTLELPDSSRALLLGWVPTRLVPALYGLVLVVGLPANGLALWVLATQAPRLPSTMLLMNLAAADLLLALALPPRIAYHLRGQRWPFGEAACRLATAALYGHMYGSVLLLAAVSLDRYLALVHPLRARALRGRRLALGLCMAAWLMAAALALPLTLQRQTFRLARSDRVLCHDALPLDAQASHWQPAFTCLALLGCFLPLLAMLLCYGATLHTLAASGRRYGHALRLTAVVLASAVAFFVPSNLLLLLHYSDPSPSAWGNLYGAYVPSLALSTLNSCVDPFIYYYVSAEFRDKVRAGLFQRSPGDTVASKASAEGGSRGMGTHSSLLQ
Text: as §1

[3] = test system: rat PAR2-expressing KNRK cells; assay: P44/42 ERK/MAP kinase activation in rat PAR2-expressing KNRK cells; format: cell-based; conditions: ISP1 for 10 min
Method: Western blot detection of P44/42 ERK was performed essentially as described. In brief, KNRK cells that had been transfected with the PAR2 expressing construct (PAR2 -KNRK) or empty vector (pcDNA3-KNRK) were serum starved and stimulated with ISP1 for 10 min. Cells were placed on ice and agonists were removed prior to lysis with cold lysis buffer (Roche). Protein samples were boiled for 10 min in Laemelis buffer and resolved on SDS-PAGE gels. Activation of MAP Kinase was monitored by immunoblotting with phospho-specific ERK antibodies (Cell signaling) and relative increases in ERK phosphorylation was quantified relative to total ERK signal detected in the same samples. As a positive control cells were activated with SLIGRL-NH2 that causes a PAR2-mediated increase in MAPkinase phosphorylation.

[4] = biological target: T3, trypsin (Sus scrofa, UniProt P00761); assay: Effect of ISP1 on enzyme activity of trypsin; format: biochemical; conditions: data not shown
T3 construct: Porcine trypsin (cat. number T-3030; 14,500 units/mg); purchased Sigma-Aldrich T-3030 (printed as T0303); host or cells: porcine pancreas
T3 sequence (P00761 9-231): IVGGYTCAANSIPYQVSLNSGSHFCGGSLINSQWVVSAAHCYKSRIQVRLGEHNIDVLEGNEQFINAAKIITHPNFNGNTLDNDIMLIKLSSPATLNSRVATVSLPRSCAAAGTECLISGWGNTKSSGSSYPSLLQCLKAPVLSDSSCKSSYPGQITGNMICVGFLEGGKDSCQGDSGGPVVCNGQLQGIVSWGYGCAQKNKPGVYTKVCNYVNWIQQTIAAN

B1: ISP1: recombinant implantation serine proteinase 1 expressed in Pichia pastoris, also known as Mouse Prss28 (protein, UniProt Q924N9 27-274, looked up)
Serine protease 28: KPVGIVGGQRTPPGKWPWQVSLRMYSYEVNSWVHICGGSIIHPQWILTAAHCIQSQDADPAVYRVQVGEVYLYKEQELLNISRIIIHPDYNDVSKRFDLALMQLTALLVTSTNVSPVSLPKDSSTFDSTDQCWLVGWGNLLQRVPLQPPYQLHEVKIPIQDNKSCKRAYRKKSSDEHKAVAIFDDMLCAGTSGRGPCFGDSGGPLVCWKSNKWIQVGVVSKGIDCSNNLPSIFSRVQSSLAWIHQHIQ
modifications: recombinant, Pichia pastoris-expressed
notes: recombinant implantation serine proteinase 1 expressed in Pichia pastoris, also known as Mouse Prss28
- Release of PAR2 N-terminal BAB domain (PAR cleavage activity) [1]: significant concentration-dependent PAR cleavage activity
- Release of PAR4 N-terminal BAB domain (PAR cleavage activity) [2]: significant concentration-dependent PAR cleavage activity
- Phosphorylation status of ERK via MAP kinase activation [3]: No change in phosphorylation status of ERK; also recorded: No activation of ERK
- Inhibitory effect on enzyme activity of trypsin [4]: doesn't have any inhibitory effect
